Ends that are not written are not given here. dimethyl = dimethyl-lysine
Molecular target: T1, 53BP1 tandem Tudor domain (residues 1459-1634) (human, UniProt Q12888 1459-1634)
T1 chain: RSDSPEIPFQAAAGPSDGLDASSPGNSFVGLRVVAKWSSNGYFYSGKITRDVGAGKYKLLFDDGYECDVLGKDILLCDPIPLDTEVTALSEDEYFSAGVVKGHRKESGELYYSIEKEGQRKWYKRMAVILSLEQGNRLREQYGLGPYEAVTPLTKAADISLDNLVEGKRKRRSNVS
Assay: ITC

## KGGAKRHRK(dimethyl)VLRDN [H4K20me2 peptide (residues 12-25)]
  Kd: 19.8 µM

— article PMC6043480 (2018)
